Data: PMC314469, “Protein Interaction Networks by Proteome Peptide Scanning” (PLoS Biology, 2004)

T1: amphyphisin SH3 (AMPH_HUMAN), P49418
T1 chain: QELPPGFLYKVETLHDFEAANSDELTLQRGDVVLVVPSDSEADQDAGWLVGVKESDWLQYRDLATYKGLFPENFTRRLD


Target: T1, amphyphisin SH3 (AMPH_HUMAN), P49418
Assay: SPOT array

Row | Binder | normalised SPOT signal, Boehringer light units (BLU); mean over the file's lines of this peptide
1 | SHGSPRRPGPEPGA [O95180 532-545] | 44.7
2 | SGPGPARPARARPR [P53539 130-143] | 14900
3 | AAVAPSRPGREPQA [Q9ULI4 780-793] | 2520
4 | SKTPPQRPPPQGGP | 127
5 | SKTPPQRPPPQGSL | 193
6 | SISFPTRPPLQAQI [Q8TDT3 61-75] | 61.2
7 | SMFFIRRPTLDINW [O94848 219-232] | 58.5
8 | SLRKLKRPPPPPRR [Q9P206 440-453] | 78.1
9 | SIHPPGRPPAVRGP [P50570 773-787] | 340
10 | SLKIFRRPRKLFMQ [Q99776 220-233] | 88.1
11 | SLMTPRRPLSTSEK [Q9H5L8 147-160] | 70
12 | SHHPPDRPPDPFST [Q8TA97 483-497] | 30.4
13 | SLRVPKRPIINTPV [Q9HCU4 2269-2282] | 53.7
14 | SGVLLVRPSRLSSS [P11362 439-452] | 7990
15 | SLASPRRPLLSDFA [Q96RJ6 21-34] | 78.6
16 | SALSLRRPHSGWSA [O75097 1019-1032] | 27.1
17 | SIVEFFRPPKEVHL [Q96RL7 600-613] | 164
18 | SLEVIRRPETKVLI [Q9BYK8 558-571] | 22.1
19 | SLLDFIRPLKISSD [Q9UPM8 1026-1039] | 219
20 | SNPVPPRPPPPSLA [Q9UBP0 16-30] | 143
21 | SGSKLKRPTPTFHS [Q9UPN3 5307-5320] | 41.6

Row | Binder | normalised SPOT signal, Boehringer light units (BLU); mean over the file's lines of this peptide
22 | SNTPPPRPPKPSHL [Q8WWW8 303-317] | 2120
23 | SITQLRRPSQLLYP [Q96AN7 126-139] | 9.2
24 | SPARPRRPHASRDG [Q9H8S7 107-120] | 13800
25 | SKASLSRPGRRPLG [Q9C0H4 580-593] | 226
26 | SGTPIRRPMGQMKP [P16930 169-182] | 3.3
27 | SLVLPSRPPIGLPP [Q9UHI4 161-175] | 40.4
28 | SLPRPRRPLPTQQQ [Q9P0U4 231-244] | 509
29 | SMGPPSKPPDEEHR [Q9NZ56 228-242] | 49.6
30 | SGTALLRPLRPKPP [Q92766 106-119] | 147
31 | SLPSPSKPPIQQPT [Q9Y6V0 260-274] | 55.1
32 | SLSFIARPGKVSQL [P21128 321-334] | 152
33 | SAVGPNRPPTVSQP [Q9UFD8 131-145] | 51.4
34 | SIWDPRRPLNTTEG [P09848 409-422] | 10.9
35 | SINLLSRPERGWEG [Q14801 17-30] | 0
36 | SARGPLRPPVRSPA [P30084 9-23] | 3810
37 | SLKRPKRPLFNFAL [Q96RW7 70-83] | 169
38 | SGSRPRKPPPRKHT [Q9P189 81-95] | 3680
39 | SPAPPHKPPNTREN [P51816 884-898] | 48.2
40 | SLHGPRRPQPGASG [O95428 745-758] | 33.5
41 | SLALPRRPQNRDSI [Q9HCG4 261-274] | 96.2
42 | SLPLPKRPRRGAAP [O14746 231-244] | 5540

The binders below were run against endophilin SH3 (SH3G2_HUMAN), Q99962 (assay: SPOT array).

Row | Binder | normalised SPOT signal, Boehringer light units (BLU); mean over the file's lines of this peptide
43 | SHGSPRRPGPEPGA [O95180 532-545] | 31
44 | SGPGPARPARARPR [P53539 130-143] | 17200
45 | AAVAPSRPGREPQA [Q9ULI4 780-793] | 418
46 | SKTPPQRPPPQGGP | 1450
47 | SKTPPQRPPPQGSL | 2380
48 | SISFPTRPPLQAQI [Q8TDT3 61-75] | 162
49 | SMFFIRRPTLDINW [O94848 219-232] | 744
50 | SLRKLKRPPPPPRR [Q9P206 440-453] | 199
51 | SIHPPGRPPAVRGP [P50570 773-787] | 2730
52 | SLKIFRRPRKLFMQ [Q99776 220-233] | 74.5
53 | SLMTPRRPLSTSEK [Q9H5L8 147-160] | 1480
54 | SHHPPDRPPDPFST [Q8TA97 483-497] | 1390
55 | SLRVPKRPIINTPV [Q9HCU4 2269-2282] | 2480
56 | SGVLLVRPSRLSSS [P11362 439-452] | 210
57 | SLASPRRPLLSDFA [Q96RJ6 21-34] | 1690
58 | SALSLRRPHSGWSA [O75097 1019-1032] | 47.4
59 | SIVEFFRPPKEVHL [Q96RL7 600-613] | 98.5
60 | SLEVIRRPETKVLI [Q9BYK8 558-571] | 65.4
61 | SLLDFIRPLKISSD [Q9UPM8 1026-1039] | 0
62 | SNPVPPRPPPPSLA [Q9UBP0 16-30] | 11600
63 | SGSKLKRPTPTFHS [Q9UPN3 5307-5320] | 40.3

Row | Binder | normalised SPOT signal, Boehringer light units (BLU); mean over the file's lines of this peptide
64 | SNTPPPRPPKPSHL [Q8WWW8 303-317] | 18000
65 | SITQLRRPSQLLYP [Q96AN7 126-139] | 36.3
66 | SPARPRRPHASRDG [Q9H8S7 107-120] | 8710
67 | SKASLSRPGRRPLG [Q9C0H4 580-593] | 53.5
68 | SGTPIRRPMGQMKP [P16930 169-182] | 148
69 | SLVLPSRPPIGLPP [Q9UHI4 161-175] | 72.4
70 | SLPRPRRPLPTQQQ [Q9P0U4 231-244] | 3100
71 | SMGPPSKPPDEEHR [Q9NZ56 228-242] | 44.5
72 | SGTALLRPLRPKPP [Q92766 106-119] | 153
73 | SLPSPSKPPIQQPT [Q9Y6V0 260-274] | 94.9
74 | SLSFIARPGKVSQL [P21128 321-334] | 146
75 | SAVGPNRPPTVSQP [Q9UFD8 131-145] | 969
76 | SIWDPRRPLNTTEG [P09848 409-422] | 41.8
77 | SINLLSRPERGWEG [Q14801 17-30] | 97.2
78 | SARGPLRPPVRSPA [P30084 9-23] | 1950
79 | SLKRPKRPLFNFAL [Q96RW7 70-83] | 2170
80 | SGSRPRKPPPRKHT [Q9P189 81-95] | 3720
81 | SPAPPHKPPNTREN [P51816 884-898] | 78.5
82 | SLHGPRRPQPGASG [O95428 745-758] | 256
83 | SLALPRRPQNRDSI [Q9HCG4 261-274] | 866
84 | SLPLPKRPRRGAAP [O14746 231-244] | 9620
